According to patent US20040167319A1 (Genmab, published 2004):
Bridges are numbered along the chain shown (N, C = ends). Where no end group is shown, it is not given here. minicard = not defined here

T1: EPANPSEK of the second extracellular loop of human CD20 (human)
T1 construct: not a peptide made as such
T1 peptide: EPANPSEK

T2: KMESCNFIRACTPYI (linker 5-11 via 1,3‑bis(bromomethyl)‑benzene (inferred); reading uncertain)
T2 construct: 15-mer looped Pepscan peptide derived from human CD20, Cys put in at two positions
T2 peptide: Ac-KMESCNFIRACTPYI-minicard

T3: KMECLNFIRAHCPYI (linker 4-12 via 1,3‑bis(bromomethyl)‑benzene (inferred); reading uncertain)
T3 construct: 15-mer looped Pepscan peptide derived from human CD20, Cys put in at two positions
T3 peptide: Ac-KMECLNFIRAHCPYI-minicard

T4: LKMECLNFIRCHTPY (linker 5-11 via 1,3‑bis(bromomethyl)‑benzene (inferred); reading uncertain)
T4 construct: 15-mer looped Pepscan peptide derived from human CD20, Cys put in at two positions
T4 peptide: Ac-LKMECLNFIRCHTPY-minicard

T5: MESLCFIRAHCPYIN (linker 5-11 via 1,3‑bis(bromomethyl)‑benzene (inferred); reading uncertain)
T5 construct: 15-mer looped Pepscan peptide derived from human CD20, Cys put in at two positions
T5 peptide: Ac-MESLCFIRAHCPYIN-minicard

T6: CFIRAHTPC (linker 1-9 via 1,3‑bis(bromomethyl)‑benzene (inferred); not fully specified (C-terminus); also: covalently linked to minicard)
T6 construct: 9-mer looped Pepscan peptide derived from human CD20
T6 peptide: CFIRAHTPC

T7: CIRAHTPYC (linker 1-9 via 1,3‑bis(bromomethyl)‑benzene (inferred); not fully specified (C-terminus); also: covalently linked to minicard)
T7 construct: 9-mer looped Pepscan peptide derived from human CD20
T7 peptide: CIRAHTPYC

T8: CRAHTPYIC (linker 1-9 via 1,3‑bis(bromomethyl)‑benzene (inferred); not fully specified (C-terminus); also: covalently linked to minicard)
T8 construct: 9-mer looped Pepscan peptide derived from human CD20
T8 peptide: CRAHTPYIC

T9: CAHTPYINC (linker 1-9 via 1,3‑bis(bromomethyl)‑benzene (inferred); not fully specified (C-terminus); also: covalently linked to minicard)
T9 construct: 9-mer looped Pepscan peptide derived from human CD20
T9 peptide: CAHTPYINC

T10: IPAGIYA (also: covalently linked to polyethylene card)
T10 construct: 7-mer Pepscan peptide derived from human CD20
T10 peptide: IPAGIYA

T11: PAGIYAP (also: covalently linked to polyethylene card)
T11 construct: 7-mer Pepscan peptide derived from human CD20
T11 peptide: PAGIYAP

T12: AGIYAPI (also: covalently linked to polyethylene card)
T12 construct: 7-mer Pepscan peptide derived from human CD20
T12 peptide: AGIYAPI

T13: GIYAPIC (also: covalently linked to polyethylene card)
T13 construct: 7-mer Pepscan peptide derived from human CD20
T13 peptide: GIYAPIC

T14: IYAPICV (also: covalently linked to polyethylene card)
T14 construct: 7-mer Pepscan peptide derived from human CD20
T14 peptide: IYAPICV

T15: GIYAPIA (also: covalently linked to polyethylene card)
T15 construct: 7-mer Pepscan peptide derived from human CD20 (A in place of the C of GIYAPIC)
T15 peptide: GIYAPIA

T16: IYAPIAV (also: covalently linked to polyethylene card)
T16 construct: 7-mer Pepscan peptide derived from human CD20 (A in place of the C of IYAPICV)
T16 peptide: IYAPIAV

T17: AGIYAP of the small first extracellular loop of human CD20 (human)
T17 construct: not a peptide made as such
T17 peptide: AGIYAP

T18: MESLNFIRAHTPYI of the second extracellular loop of human CD20 (human)
T18 construct: not a peptide made as such
T18 peptide: MESLNFIRAHTPYI


Assays:
[1] = molecular target: T1, EPANPSEK of the second extracellular …; test: Pepscan ELISA
Description: (§1) Pepscan ELISA-assay: The 455-well credit card-format polyethylene cards, containing the covalently linked peptides, were incubated with serum (diluted 1:1000 in blocking solution which contains 5% horse serum (v/v) and 5% ovalbumin (w/v)) (4° C., over night). After washing, the peptides were incubated with anti-human antibody peroxidase (dilution 1:1000, 1 hour, 25° C.), and after washing the peroxidase substrate, 2,2′-azino-di-3-ethylbenzthiazolin sulfonate and 2 μl/ml 3% H₂O₂ were added. After one hour, the color development was measured. The color development of the ELISA was quantified with a CCD-camera and an image processing system. The set up consists of a CCD-camera and a 55 mm lens (Sony CCD Video Camera XC-77RR, Nikon micro-nikk or 55 mm f/2.8 lens), a camera adaptor (Sony Camera adaptor DC-77RR) and the Image Processing Software package Optimas, version 6.5 (Media Cybernetics, Silver Spring, Md. 20910, U.S.A.). Optimas runs on a pentium II computer system.

KMESCNFIRACTPYI [2] = molecular target: T2, KMESCNFIRACTPYI; test: Pepscan ELISA, 10 µg/ml
From the text: (§2) In some cases chemical linkage of the legs of a 15-mer peptide helps to identify amino acid sequences of a potentially discontinuous epitope. […] The 9- and 15-mers were synthesized as loops and screened using credit-card format mini-PEPSCAN cards (455 peptide format/card). In all looped peptides amino acids at varied positions were replaced by a cysteine (e.g., acetyl-XCXXXXXXXXCX-minicard). The peptides were synthesized using standard Fmoc-chemistry and deprotected using TFA with scavengers. Subsequently, the deprotected peptides were reacted on the microarray with an 0.5 mM solution of 1,3-bis(bromomethyl)-benzene in ammonium bicarbonate (20 mM, pH 7.9), supplemented with acetonitrile (1:1 (v/v)). The microarrays were gently shaken in the solution for 30-60 min, while completely covered in the solution. Finally, the microarrays were washed extensively with excess of Millipore H₂O and sonicated in disrupt-buffer containing 1% sodium dodecylsulfate, 0.1% β-mercaptoethanol, in PBS (pH 7.2) at 70° C. for 30 min, followed by sonication in millipore H₂O for another 45 min. Subsequently, the microwells were ready for screening in an ELISA-assay.
(§3) […] After washing, the peptides were incubated with anti-human antibody peroxidase (dilution 1:1000, 1 hour, 25° C.), and after washing the peroxidase substrate, 2,2′-azino-di-3-ethylbenzthiazolin sulfonate and 2 μl/ml 3% H₂O₂ were added. After one hour, the color development was measured. The color development of the ELISA was quantified with a CCD-camera and an image processing system.

KMECLNFIRAHCPYI = molecular target: T3, KMECLNFIRAHCPYI; test: Pepscan ELISA, 100 µg/ml
From the text: as §2, §3

LKMECLNFIRCHTPY = molecular target: T4, LKMECLNFIRCHTPY; test: Pepscan ELISA, 100 µg/ml
From the text: as §2, §3

KMESCNFIRACTPYI [3] = molecular target: T2, KMESCNFIRACTPYI; test: Pepscan ELISA, 100 µg/ml
From the text: as §2, §3

MESLCFIRAHCPYIN = molecular target: T5, MESLCFIRAHCPYIN; test: Pepscan ELISA, 100 µg/ml
From the text: as §2, §3

CFIRAHTPC = molecular target: T6, CFIRAHTPC; test: Pepscan ELISA, 100 µg/ml
From the text: as §2, §3

CIRAHTPYC = molecular target: T7, CIRAHTPYC; test: Pepscan ELISA, 100 µg/ml
From the text: as §2, §3

CRAHTPYIC = molecular target: T8, CRAHTPYIC; test: Pepscan ELISA, 100 µg/ml
From the text: as §2, §3

CAHTPYINC = molecular target: T9, CAHTPYINC; test: Pepscan ELISA, 100 µg/ml
From the text: as §2, §3

IPAGIYA = molecular target: T10, IPAGIYA; test: Pepscan ELISA, 100 µg/ml
From the text: as §2, §3

PAGIYAP = molecular target: T11, PAGIYAP; test: Pepscan ELISA, 100 µg/ml
From the text: as §2, §3

AGIYAPI = molecular target: T12, AGIYAPI; test: Pepscan ELISA, 100 µg/ml
From the text: as §2, §3

GIYAPIC = molecular target: T13, GIYAPIC; test: Pepscan ELISA, 100 µg/ml
From the text: as §2, §3

IYAPICV = molecular target: T14, IYAPICV; test: Pepscan ELISA, 100 µg/ml
From the text: as §2, §3

GIYAPIA = molecular target: T15, GIYAPIA; test: Pepscan ELISA, 100 µg/ml
From the text: as §2, §3

IYAPIAV = molecular target: T16, IYAPIAV; test: Pepscan ELISA, 100 µg/ml
From the text: as §2, §3

[4] = molecular target: T17, AGIYAP of the small first extracellular …; test: Pepscan ELISA
Description: as §1

[5] = molecular target: T18, MESLNFIRAHTPYI of the second …; test: Pepscan ELISA
Description: as §1

Binder	binding result [1]	OD (absorbance) (KMESCNFIRACTPYI [2]) [OD]	OD (absorbance) (KMECLNFIRAHCPYI) [OD]	OD (absorbance) (LKMECLNFIRCHTPY) [OD]	OD (absorbance) (KMESCNFIRACTPYI [3]) [OD]	OD (absorbance) (MESLCFIRAHCPYIN) [OD]	OD (absorbance) (CFIRAHTPC) [OD]	OD (absorbance) (CIRAHTPYC) [OD]	OD (absorbance) (CRAHTPYIC) [OD]	OD (absorbance) (CAHTPYINC) [OD]	OD (absorbance) (IPAGIYA) [OD]	OD (absorbance) (PAGIYAP) [OD]	OD (absorbance) (AGIYAPI) [OD]	OD (absorbance) (GIYAPIC) [OD]	OD (absorbance) (IYAPICV) [OD]	OD (absorbance) (GIYAPIA) [OD]	OD (absorbance) (IYAPIAV) [OD]	binding result [4]	binding result [5]
11B8 (antibody, IgG3, V domains shown, Human monoclonal IgG3,κ from hybridoma) VH: EVQLVQSGGGLVHPGGSLRLSCTGSGFTFSYHAMHWVRQAPGKGLEWVSIIGTGGVTYYADSVKGRFTISRDNVKNSLYLQMNSLRAEDMAVYYCARDYYGAGSFYDGLYGMDVWGQGTTVTVSS VL: EIVLTQSPATLSLSPGERATLSCRASQSVSSYLAWYQQKPGQAPRLLIYDASNRATGIPARFSGSGSGTDFTLTISSLEPEDFAVYYCQQRSDWPLTFGGGTKVEIK	no binding (tested: 10 µg/ml)	625	3000	738	3090	956	534	449	1600	452	950	2500	2210	251	313	857	654		
7D8 (antibody, IgG1, V domains shown, Human monoclonal IgG1,κ from hybridoma) VH: EVQLVESGGGLVQPDRSLRLSCAASGFTFHDYAMHWVRQAPGKGLEWVSTISWNSGTIGYADSVKGRFTISRDNAKNSLYLQMNSLRAEDTALYYCAKDIQYGNYYYGMDVWGQGTTVTVSS VL: EIVLTQSPATLSLSPGERATLSCRASQSVSSYLAWYQQKPGQAPRLLIYDASNRATGIPARFSGSGSGTDFTLTISSLEPEDFAVYYCQQRSNWPITFGQGTRLEIK	no binding (tested: 10 µg/ml)	142	41	41	52	55	69	60	64	65		64	73	64	58	96	58	no binding (tested: 100 µg/ml)	no binding (tested: 100 µg/ml)
2F2 (antibody, V domains shown, FITC- or 125I-labelled in some assays; F(ab')2 fragments in some; the letters do not carry this, Human monoclonal IgG1,κ from hybridoma; also called 4C9; HuMab 2F2 (hybridoma-derived)) VH: EVQLVESGGGLVQPGRSLRLSCAASGFTFNDYAMHWVRQAPGKGLEWVSTISWNSGSIGYADSVKGRFTISRDNAKKSLYLQMNSLRAEDTALYYCAKDIQYGNYYYGMDVWGQGTTVTVSS VL: EIVLTQSPATLSLSPGERATLSCRASQSVSSYLAWYQQKPGQAPRLLIYDASNRATGIPARFSGSGSGTDFTLTISSLEPEDFAVYYCQQRSNWPITFGQGTRLEIK		39	66	87	78	65	114	92	87	106	85	85	98	93	99	96	76		
